Patent US20240270825A1 (CENTIVAX, published 2024)

B1: COVID19_P09_B09 (scFv, V domains shown)
VH: QVQLVQSGAEVKKPGSSVKVSCKASGYRFTDYHLHWVRQAPGQGLEWMGGIVPFSGTTNFAQKFQGRVTITADESTSTAYMELSSLRSEDTAVYYCAGGSGETTPMDVWGQGTLVTVSS
VL: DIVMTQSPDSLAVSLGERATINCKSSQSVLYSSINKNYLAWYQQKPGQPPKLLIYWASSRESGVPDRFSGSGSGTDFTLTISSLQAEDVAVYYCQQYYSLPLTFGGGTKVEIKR
B2: COVID19_P22_C09 (scFv, V domains shown)
VH: QVQLVQSGAEVKKPGSSVKVSCKASGYNFTDYHIQWVRQAPGQGLEWVGMIIPRHGGTAYAQRFQGRVTITADESTSTAYMELSSLRSEDTAVYYCAGGSGLTTPMDVWGQGTLVTVSS
VL: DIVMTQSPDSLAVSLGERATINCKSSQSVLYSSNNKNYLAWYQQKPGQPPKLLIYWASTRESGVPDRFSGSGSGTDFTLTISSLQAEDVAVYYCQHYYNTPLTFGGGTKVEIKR
B3: COVID19_P10_B10 (scFv, V domains shown)
VH: QVQLVQSGAEVKKPGSSVKVSCKASGYSFSDYHVHWVRQAPGQGLEWVGMIIPRHGGTAYAQKFQGRVTITADESTSTAYMELSSLRSEDTAVYYCAGGSGISTPMDVWGQGTLVTVSS
VL: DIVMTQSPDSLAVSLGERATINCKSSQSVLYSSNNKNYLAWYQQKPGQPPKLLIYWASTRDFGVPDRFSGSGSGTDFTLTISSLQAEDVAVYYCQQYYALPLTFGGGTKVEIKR
B4: COVID19_P22_F04 (scFv, V domains shown)
VH: QVQLVQSGAEVKKPGSSVKVSCKASGGGFITYWIGWVRQAPGQGLEWMGIIYPGDGEARYSQKFQGRVTITADESTSTAYMELSSLRSEDTAVYYCAGGSGISTPMDVWGQGTLVTVSS
VL: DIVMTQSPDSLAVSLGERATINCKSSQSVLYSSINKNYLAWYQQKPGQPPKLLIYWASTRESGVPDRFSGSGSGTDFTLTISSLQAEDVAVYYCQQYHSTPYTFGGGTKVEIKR
B5: COVID19_P21_A08 (scFv, V domains shown)
VH: QVQLVQSGAEVKKPGSSVKVSCKASGGTFITYWIGWVRQAPGQGLEWMGWINPNSGGTNYAQKFQGRVTITADESTSTAYMELSSLRSEDTAVYYCAGGSGISTPMDVWGQGTLVTVSS
VL: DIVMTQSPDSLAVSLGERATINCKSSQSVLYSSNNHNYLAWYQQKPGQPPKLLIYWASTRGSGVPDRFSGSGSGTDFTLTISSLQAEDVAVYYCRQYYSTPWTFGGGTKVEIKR
B6: COVID19_P09_D06 (scFv, V domains shown)
VH: QVQLVQSGAEVKKPGSSVKVSCKASGYGFITYWIGWVRQAPGQGLEWMGIIYPGDSETRYAQKFQGRVTITADESTSTAYMELSSLRSEDTAVYYCAGGSGIYVPMDVWGQGTLVTVSS
VL: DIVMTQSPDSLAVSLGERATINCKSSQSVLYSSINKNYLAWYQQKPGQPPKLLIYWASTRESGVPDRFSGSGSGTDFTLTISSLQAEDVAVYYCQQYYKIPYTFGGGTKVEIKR
B7: COVID19_P21_B01 (scFv, V domains shown)
VH: QVQLVQSGAEVKKPGSSVKVSCKASGYTFSTYWIGWVRQAPGQGLEWMGWIDPNSGGTNYAQKFQGRVTITADESTSTAYMELSSLRSEDTAVYYCAGGSGISTPMDVWGQGTLVTVSS
VL: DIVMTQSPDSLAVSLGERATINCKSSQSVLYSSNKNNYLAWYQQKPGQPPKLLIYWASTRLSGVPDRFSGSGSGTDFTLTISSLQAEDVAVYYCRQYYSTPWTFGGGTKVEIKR
B8: COVID19_P09_H09 (scFv, V domains shown)
VH: QVQLVQSGAEVKKPGSSVKVSCKASGGTFITYWIYWVRQAPGQGLEWMGIIYPGDGEARYSQKFYGRVTITADESTSTAYMELSSLRSEDTAVYYCAGSGGISTPMDVWGQGTLVTVSS
VL: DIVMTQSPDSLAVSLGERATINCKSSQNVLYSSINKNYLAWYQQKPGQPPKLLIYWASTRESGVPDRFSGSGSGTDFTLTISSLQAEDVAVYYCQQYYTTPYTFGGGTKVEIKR
B9: COVID19_P22_F11 (scFv, V domains shown)
VH: QVQLVQSGAEVKKPGSSVKVSCKASGGGFITYWISWVRQAPGQGLEWMGIIYPGDGEARYSQKFQGRVTITADESTSTAYMELSSLRSEDTAVYYCAGGSGIIQPMDVWGQGTLVTVSS
VL: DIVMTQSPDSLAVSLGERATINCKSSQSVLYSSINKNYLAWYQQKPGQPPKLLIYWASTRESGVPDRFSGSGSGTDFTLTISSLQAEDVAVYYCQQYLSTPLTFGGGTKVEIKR
B10: COVID19_P10_C05 (scFv, V domains shown)
VH: QVQLVQSGAEVKKPGSSVKVSCKASGGTFITYWIGWVRQAPGQGLEWMGIIYPGDGEARYSQKFQGRVTITADESTSTAYMELSSLRSEDTAVYYCAGSGGISTPMDVWGQGTLVTVSS
VL: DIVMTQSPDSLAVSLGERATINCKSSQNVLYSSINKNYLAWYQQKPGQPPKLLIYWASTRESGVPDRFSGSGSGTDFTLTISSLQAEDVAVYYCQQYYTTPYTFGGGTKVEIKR
B11: COVID19_P22_B04 (scFv, V domains shown)
VH: QVQLVQSGAEVKKPGSSVKVSCKASGYGFITYWIGWVRQAPGQGLEWMGIIYPGDSETRYAQKFQGRVTITADESTSTAYMELSSLRSEDTAVYYCAGGEGISTPMDVWGQGTLVTVSS
VL: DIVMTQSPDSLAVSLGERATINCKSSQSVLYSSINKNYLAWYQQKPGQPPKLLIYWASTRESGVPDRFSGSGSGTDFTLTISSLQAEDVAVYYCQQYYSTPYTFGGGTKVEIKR
B12: COVID19_P22_G12 (scFv, V domains shown)
VH: QVQLVQSGAEVKKPGSSVKVSCKASGGGFITYWIGWVRQAPGQGLEWMGIIYPGDSETRYSQKFQGRVTITADESTSTAYMELSSLRSEDTAVYYCAGGSGISTPMDVWGQGTLVTVSS
VL: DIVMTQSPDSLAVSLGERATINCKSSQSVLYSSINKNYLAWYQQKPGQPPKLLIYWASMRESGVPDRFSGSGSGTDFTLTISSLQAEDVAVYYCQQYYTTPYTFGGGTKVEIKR
B13: COVID19_P10_D08 (scFv, V domains shown)
VH: QVQLVQSGAEVKKPGSSVKVSCKASGGTFNSHAISWVRQAPGQGLEWMGWINPNSGATNYAQKFQGRVTITADESTSTAYMELSSLRSEDTAVYYCAGGSGISTPVGVWGQGTLVTVSS
VL: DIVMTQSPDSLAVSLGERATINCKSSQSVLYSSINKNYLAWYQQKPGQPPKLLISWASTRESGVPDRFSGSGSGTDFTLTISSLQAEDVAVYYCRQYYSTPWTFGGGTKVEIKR
B14: COVID19_P10_G03 (scFv, V domains shown)
VH: QVQLVQSGAEVKKPGSSVKVSCKASGGTFSNSSINWVRQAPGQGLEWMGRINPNSGGTNYAQKFQGRVTITADESTSTAYMELSSLRSEDTAVYYCAGGSGISTPMDVWGQGTLVTVSS
VL: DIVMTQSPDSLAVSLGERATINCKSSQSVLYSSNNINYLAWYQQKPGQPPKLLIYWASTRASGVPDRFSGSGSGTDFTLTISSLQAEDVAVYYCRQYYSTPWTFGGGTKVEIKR
B15: COVID19_P09_C05 (scFv, V domains shown)
VH: QVQLVQSGAEVKKPGSSVKVSCKASGYSFSDYYIHWVRQAPGQGLEWMGWIDPNSGGTNYAQKFQGRVTITADESTSTAYMELSSLRSEDTAVYYCAGGSGISTPMDVWGQGTLVTVSS
VL: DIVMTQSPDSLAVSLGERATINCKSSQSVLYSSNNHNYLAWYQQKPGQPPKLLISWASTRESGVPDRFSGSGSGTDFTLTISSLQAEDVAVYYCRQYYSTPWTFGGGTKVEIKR
B16: COVID19_P22_E06 (scFv, V domains shown)
VH: QVQLVQSGAEVKKPGSSVKVSCKASGGGFITYWIGWVRQAPGQGLEWMGIIYPGDSETRYSQKFQGRVTITADESTSTAYMELSSLRSEDTAVYYCAGGSGISSDMDVWGQGTLVTVSS
VL: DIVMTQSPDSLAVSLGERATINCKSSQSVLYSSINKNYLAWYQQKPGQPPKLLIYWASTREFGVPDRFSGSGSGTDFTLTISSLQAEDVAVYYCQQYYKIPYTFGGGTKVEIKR
B17: COVID19_P21_H03 (scFv, V domains shown)
VH: QVQLVQSGAEVKKPGSSVKVSCKASGYTFTNYGINWVRQAPGQGLEWMGWMNPYSGNTGYAQKFQGRVTITADESTSTAYMELSSLRSEDTAVYYCAVLSGISTPMDVWGQGTLVTVSS
VL: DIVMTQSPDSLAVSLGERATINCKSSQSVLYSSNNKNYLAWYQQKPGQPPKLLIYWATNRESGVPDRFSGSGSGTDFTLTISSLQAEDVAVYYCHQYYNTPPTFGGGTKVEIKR
B18: COVID19_P09_G12 (scFv, V domains shown)
VH: QVQLVQSGAEVKKPGSSVKVSCKASGYPFTNYGISWVRQAPGQGLEWMGWMNPNSGNTGYAQKFQGRVTITADESTSTAYMELSSLRSEDTAVYYCATLSGISTPMDVWGQGTLVTVSS
VL: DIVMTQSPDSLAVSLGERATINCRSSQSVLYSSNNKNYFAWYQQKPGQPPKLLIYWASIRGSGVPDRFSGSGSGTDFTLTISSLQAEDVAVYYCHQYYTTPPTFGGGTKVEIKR
B19: COVID19_P21_B02 (scFv, V domains shown)
VH: QVQLVQSGAEVKKPGSSVKVSCKASGYTFTNYGINWVRQAPGQGLEWMGWMNPNSGNTGYAQKFQGRVTITADESTSTAYMELSSLRSEDTAVYYCAAVSGISTPMDVWGQGTLVTVSS
VL: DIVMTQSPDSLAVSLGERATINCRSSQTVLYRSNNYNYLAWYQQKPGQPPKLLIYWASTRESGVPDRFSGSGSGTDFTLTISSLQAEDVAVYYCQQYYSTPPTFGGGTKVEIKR
B20: COVID19_P21_E04 (scFv, V domains shown)
VH: QVQLVQSGAEVKKPGSSVKVSCKASGYTFTNYGINWMRQAPGQGLEWMGWMNPNSGNTGYAQKFQGRVTITADESTSTAYMELSSLRSEDTAVYYCAGGSGISTPMDVWGQGTLVTVSS
VL: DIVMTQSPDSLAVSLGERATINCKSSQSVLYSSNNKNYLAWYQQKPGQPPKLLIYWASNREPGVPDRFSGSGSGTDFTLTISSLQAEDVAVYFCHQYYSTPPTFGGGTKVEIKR

Columns and labels:
[1] = target: T1, SARS-CoV-1 Receptor Binding Domain (RBD) protein (SARS-CoV-1, UniProt P59594 306-527); test: SPR Carterra LSA, scFv captured via anti-V5
T1 construct: also called SARS1

[2] = target: T2, MERS Receptor Binding Domain (RBD) protein (Middle East Respiratory Syndrome (MERS) …, UniProt K9N5Q8 367-606); test: SPR Carterra LSA, scFv captured via anti-V5
T2 construct: also called Middle East Respiratory Syndrome (MERS) virus
T2 sequence: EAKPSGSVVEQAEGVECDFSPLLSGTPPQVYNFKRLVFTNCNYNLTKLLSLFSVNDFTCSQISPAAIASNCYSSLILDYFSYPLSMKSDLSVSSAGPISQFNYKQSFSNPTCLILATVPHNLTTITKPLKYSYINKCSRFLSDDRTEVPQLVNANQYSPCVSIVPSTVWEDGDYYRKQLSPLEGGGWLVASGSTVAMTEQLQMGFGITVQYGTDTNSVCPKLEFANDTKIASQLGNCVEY

| Binder | binding result [1] | binding result [2] |
| --- | --- | --- |
| B1 | no binding (tested: 300 nM) | no binding (tested: 300 nM) |
| B2 | no binding (tested: 300 nM) | no binding (tested: 300 nM) |
| B3 | no binding (tested: 300 nM) | no binding (tested: 300 nM) |
| B4 | no binding (tested: 300 nM) | no binding (tested: 300 nM) |
| B5 | no binding (tested: 300 nM) | no binding (tested: 300 nM) |
| B6 | no binding (tested: 300 nM) | no binding (tested: 300 nM) |
| B7 | no binding (tested: 300 nM) | no binding (tested: 300 nM) |
| B8 | no binding (tested: 300 nM) | no binding (tested: 300 nM) |
| B9 | no binding (tested: 300 nM) | no binding (tested: 300 nM) |
| B10 | no binding (tested: 300 nM) | no binding (tested: 300 nM) |
| B11 | no binding (tested: 300 nM) | no binding (tested: 300 nM) |
| B12 | no binding (tested: 300 nM) | no binding (tested: 300 nM) |
| B13 | no binding (tested: 300 nM) | no binding (tested: 300 nM) |
| B14 | no binding (tested: 300 nM) | no binding (tested: 300 nM) |
| B15 | no binding (tested: 300 nM) | no binding (tested: 300 nM) |
| B16 | no binding (tested: 300 nM) | no binding (tested: 300 nM) |
| B17 | no binding (tested: 300 nM) | no binding (tested: 300 nM) |
| B18 | no binding (tested: 300 nM) | no binding (tested: 300 nM) |
| B19 | no binding (tested: 300 nM) | no binding (tested: 300 nM) |
| B20 | no binding (tested: 300 nM) | no binding (tested: 300 nM) |
